In patent publication US20250282885A1 (VST BIO, published 2025):

How the values were obtained:
[1] = target: T1, human Sdc2 (human, UniProt P34741 19-144, limits assumed); assay: Octet tandem binning; saturating Ab f12 19838-6-N03-A
T1 construct: Antigen of the Octet tandem binning, loaded on biosensors at 100 nM; also called huSdc2; hSdc2

[2] = target: T1, human Sdc2; assay: Octet tandem binning; saturating Ab m5 19844-R4M-P3-A12 (row boxed, self-self >0.09)
Method in brief: (§1)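 Human Sdc2 at 100 nM was loaded on biosensors, dipped in saturating antibody (25 μg/ml, 240 s), then competing antibody (5 μg/ml, 180 s). Competing-antibody signal was normalized to binding without saturating antibody (buffer), then clustered with pvclust.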

[3] = target: T1, human Sdc2; assay: Octet tandem binning; saturating Ab m6 19838-20H19-AA (marked non-binding ligand)
[4] = target: T1, human Sdc2; assay: Octet tandem binning; saturating Ab f11 19838-20-H19-A
[5] = target: T1, human Sdc2; assay: Octet tandem binning; saturating Ab f3 19838-6N03-A
[6] = target: human Sdc2 on Human Umbilical Vein Endothelial Cells (HUVEC) (human, UniProt P34741 19-201); assay: cell-based or functional assay
Chain of human Sdc2 on Human Umbilical Vein Endothelial Cells (HUVEC) (P34741 19-201 limits assumed): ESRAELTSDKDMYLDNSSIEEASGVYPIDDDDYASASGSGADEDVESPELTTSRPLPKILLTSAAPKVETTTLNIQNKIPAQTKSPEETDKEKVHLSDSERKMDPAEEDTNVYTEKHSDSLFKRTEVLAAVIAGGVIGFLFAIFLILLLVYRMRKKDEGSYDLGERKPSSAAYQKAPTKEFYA

[7] = target: T1, human Sdc2; assay: Octet tandem binning; saturating Ab f9 19838-6-E17-A
[8] = target: T1, human Sdc2; assay: Octet tandem binning; saturating Ab m7 19844-R3-P1-E07
[9] = target: T1, human Sdc2; assay: Octet tandem binning; Buffer in place of a saturating Ab
[10] = target: T1, human Sdc2; assay: Octet tandem binning; saturating Ab f4 19844-R3-P3-C11
Method in brief: as §1

[11] = target: T1, human Sdc2; assay: Octet tandem binning; saturating Ab f8 19844-R4M-P2-C02
[12] = target: T1, human Sdc2; assay: Octet tandem binning; saturating Ab f7 19844-R3-P3-A12
[13] = target: T1, human Sdc2; assay: Octet tandem binning; saturating Ab m3 19844-R3-P1-C02 (row boxed, self-self >0.09)
[14] = target: T1, human Sdc2; assay: Octet tandem binning; saturating Ab f5 19844-R4M-P3-E06
[15] = target: T1, human Sdc2; assay: Octet tandem binning; saturating Ab f10 19838-10-I12-A
[16] = target: T1, human Sdc2; assay: Octet BLI, heading box over the sensorgram
[17] = target: T2, mouse Sdc2 (mouse, UniProt P43407 19-145, limits assumed); assay: Octet BLI, heading box over the sensorgram
T2 construct: Immobilised on Maxisorp plates for panning and ELISA; also called mSdc2; moSdc2
T2 sequence (P43407 19-145 limits assumed): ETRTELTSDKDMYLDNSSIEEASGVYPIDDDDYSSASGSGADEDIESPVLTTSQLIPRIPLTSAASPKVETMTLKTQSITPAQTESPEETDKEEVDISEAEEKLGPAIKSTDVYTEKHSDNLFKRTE

[18] = target: T1, human Sdc2; assay: Octet tandem binning; saturating Ab m8 19844-R4M-P1-B01 (marked non-binding ligand)
[19] = target: T1, human Sdc2; assay: Kd (human Sdc2), summary table of the mAbs
[20] = target: T1, human Sdc2; assay: Octet tandem binning; saturating Ab m2 19838-8G17-A
[21] = target: T1, human Sdc2; assay: Octet tandem binning; saturating Ab f6 19844-R3-P3-E09
Method in brief: as §1

[22] = target: T1, human Sdc2; assay: Octet BLI, HIS1K sensor loaded with huSdc2, antibody as sample; Full R2 0.9628
Description: (§2) In order to characterize the binding affinity and in vivo/in vitro functional ability of the twelve clones generated by the previous studies and disclosed in Table 1, a series of assays were performed on each clone. These assays measured the affinity of each antibody clone for human, pig, and mouse Sdc2 using an Octet® binding assay system. Additionally, the functional ability of each clone to inhibit VEGFA-driven permeability (see Santiago, et al. (2021) J Am Heart Assoc. 10(18):e020521) was assessed in two therapeutic settings: a “prevention” study in which three concentrations of antibody (5 μg/ml, 10 μg/ml, 15 μg/ml, 20 μg/ml, and/or 40 μg/ml depending on the study) were pre-incubated for an hour before administration of 100 ng/ml of VEGFA, and a “treatment” study in which 3 hours of pre-treatment with 100 ng/ml VEGFA were followed by treatment with antibody at 20 μg/ml or 40 μg/ml. Results are shown for 8-G17 in FIG. 8 and FIG. 9, 20-H19-AB in FIG. 10 and FIG. 11 (FIG. 12 for monkey ECs), R3-P3-C11 in FIG. 13 and FIG. 14, R4M-P3-E06 in FIG. 15 and FIG. 16, R3-P3-E09 in FIG. 17 and FIG. 18, R3-P1-C02 in FIG. 19 and FIG. 20, R3-P3-A12 in FIG. 21 and FIG. 22, R4M-P3-A12 in FIG. 23 and FIG. 24, and R4M-P1-A10 in FIG. 25 and FIG. 26.

[23] = target: T1, human Sdc2; assay: Octet tandem binning; saturating Ab m1 19838-20H19-AB
[24] = target: T3, pig Sdc2 (pig, UniProt F1S0L5 19-145); assay: Octet BLI, HIS1K sensor loaded with pigSdc2, antibody as sample; Full R2 0.9632
T3 construct: also called pSdc2
Description: as §2

[25] = target: T3, pig Sdc2; assay: Octet BLI, heading box over the sensorgram; the box prints nm, the table gives 2.71E-09 M
[26] = target: T1, human Sdc2; assay: Octet BLI, heading box over the sensorgram; remark: listed apart in the source
[27] = target: T2, mouse Sdc2; assay: Octet BLI, heading box over the sensorgram; remark: listed apart in the source
[28] = target: T2, mouse Sdc2; assay: Octet BLI, HIS1K sensor loaded with moSdc2, antibody as sample; Full R2 0.8674
[29] = target: T1, human Sdc2; assay: Octet BLI, HIS1K sensor loaded with huSdc2, antibody as sample; Full R2 0.9663
[30] = target: T2, mouse Sdc2; assay: Octet BLI, HIS1K sensor loaded with moSdc2, antibody as sample (curves 111.1, 37, 12.3, 4.1, 1.4, unit inferred); Full R2 0.8674
[31] = target: T1, human Sdc2; assay: Octet tandem binning; saturating Ab m4 19844-R4M-P1-A10
[32] = target: T3, pig Sdc2; assay: Octet BLI, heading box over the sensorgram; the box prints nm, the table gives 4.74E-09 M
[33] = target: T3, pig Sdc2; assay: Octet BLI, HIS1K sensor loaded with pigSdc2, antibody as sample; Full R2 0.9708
[34] = target: T1, human Sdc2; assay: Octet BLI, HIS1K sensor loaded with huSdc2, antibody as sample; Full R2 0.9943
[35] = target: T1, human Sdc2; assay: Octet BLI, heading box over the sensorgram; remark: listed apart in the source

T1 sequence (P34741 19-144 limits assumed): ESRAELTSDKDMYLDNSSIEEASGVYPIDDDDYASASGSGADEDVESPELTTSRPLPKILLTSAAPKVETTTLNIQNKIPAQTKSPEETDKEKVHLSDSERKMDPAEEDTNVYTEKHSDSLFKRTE

Binder	raw competing-Ab binding signal [1]	raw competing-Ab binding signal [2]	raw competing-Ab binding signal [3]	raw competing-Ab binding signal [4]	raw competing-Ab binding signal [5]	% Inhibition of VEGFA-induced permeability at 24hrs (20ug/ml) [6] [%]	raw competing-Ab binding signal [7]	raw competing-Ab binding signal [8]	raw competing-Ab binding signal [9]	raw competing-Ab binding signal [10]	raw competing-Ab binding signal [11]	raw competing-Ab binding signal [12]	raw competing-Ab binding signal [13]	raw competing-Ab binding signal [14]	raw competing-Ab binding signal [15]	raw competing-Ab binding signal [18]	Kd [19] [nM]	raw competing-Ab binding signal [20]	raw competing-Ab binding signal [21]	raw competing-Ab binding signal [23]	also measured
R4M-P1-A10 (antibody, human IgG1, kappa, V domains shown) VH: EVQLVETGGGVVQPGRSLRLSCAASGFTFSSYAMHWVRQAPGKGLEWVAVISYDGSNKYYADSVKGRFTISRDNSKNTLYLQMNSLRAEDTAVYYCARDRGWADAFDIWGQGTMVTVSS VL: QAGLTQPPSVSKGLRQTATLTCTGNSNNVGYQGAVWLLQYQGHPPKVLSNRNNDRPSGISERLSASRSGNTASLTITGLQPEDEGDYFCAAWDGSLRGWVFGGGTKLTVLR	0.406	0.302	0.32	0.444	0.362	100	0.34	0.353	0.337	0.193	0.211	0.246	0.255	0.358	0.418	0.355	1.82	0.377	0.203	0.439	Kd [16]: ~1.82 nM; Kd [17]: ~1.85 nM; Kd [22]: 1.82 nM; koff [22]: 0.00663 s⁻¹; kon [22]: 3.65e+06 M⁻¹ s⁻¹; Kd [24]: 2.71 nM; koff [24]: 0.00459 s⁻¹; kon [24]: 1.69e+06 M⁻¹ s⁻¹; Kd [25]: ~2.71 nM
R3-P1-C02 (antibody, human IgG1, kappa, V domains shown) VH: EVQLVESGGGVVQPGGSLRISCVASEFPFSDFGMHWVRQAPGKGLEWVAFVRSHGSGKYYADSVKGRFTISGDKSKSTLYLQMESLRPDDAAVYYCTTLADVWGQGTTVTVSS VL: not shown	0.233	0.231	0.254	0.286	0.221	100	0.227	0.24	0.223	0.0466	0.0877	0.103	–	-0.0088	0.235	0.204	2.81	0.207	0.0516	0.27	Kd [26]: ~2.81 nM; Kd [27]: ~2.44 nM; koff [28]: 0.114 s⁻¹; Kd [29]: 2.81 nM; koff [29]: 0.00946 s⁻¹; kon [29]: 3.36e+06 M⁻¹ s⁻¹; Kd [30]: 2.44 nM; raw competing-Ab binding signal [31]: 0.126; Kd [32]: ~4.74 nM; Kd [33]: 4.74 nM; koff [33]: 0.0103 s⁻¹; kon [33]: 2.16e+06 M⁻¹ s⁻¹
R3-P3-A12 (antibody, human IgG1, kappa, V domains shown, human IgG1 kappa from the phage campaign) VH: EVQLVESGGGLVQPGRSLRLSCGVSGFTFSSFGMHWVRQAPGKGLEWVAVISNDALHKNYGDSVKGRFTVTRDNSRNTLFLQMTSLRPEDTAVYYCAKDVVRGHTSGSLGSWGQGTLVTVSS VL: not shown	0.794	0.61	0.636	0.529	0.704	90	0.594	0.618	0.599	0.0654	0.562	–	0.562	0.618	0.3	0.619	2.8	0.548	0.322	0.459	Kd [34]: 2.8 nM; koff [34]: 0.00131 s⁻¹; kon [34]: 469000 M⁻¹ s⁻¹; Kd [35]: ~2.8 nM; raw competing-Ab binding signal [31]: 0.539
